# Data: PMC6555819, “Comprehensive study of nuclear receptor DNA binding provides a revised framework for understanding receptor specificity”
# Substitutions are numbered along the chain they refer to.
# B1: NRC3_random_hg19_402_o1 (dsDNA)
# DNA 1: GCTGAGGTGCTTCAGAGATGTCCACTCCTGCTGGCTGCGATTGACAGCGTAGAATGAAGG
# DNA 2: CCTTCATTCTACGCTGTCAATCGCAGCCAGCAGGAGTGGACATCTCTGAAGCACCTCAGC
# B2: NRC3_wobSeed133_DR5_G26C_o1 (dsDNA)
# DNA 1: GCCGTCCAAGGTCAATGCTAGGTCACTGAAAGCATTGCGATTGACAGCGTAGAATGAAGG
# DNA 2: CCTTCATTCTACGCTGTCAATCGCAATGCTTTCAGTGACCTAGCATTGACCTTGGACGGC
# B3: NRC3_wobSeed85_DR3_A16T_o1 (dsDNA)
# DNA 1: GCCGTCCAAGGTCAGTGAGGTCAGTGAATGCCGAGTGCGATTGACAGCGTAGAATGAAGG
# DNA 2: CCTTCATTCTACGCTGTCAATCGCACTCGGCATTCACTGACCTCACTGACCTTGGACGGC
# B4: NRC3_wobSeed111_DR4_T8G_o1 (dsDNA)
# DNA 1: GCCGAACGAGGTCAGAACAGGACAGTGAAGGATGATGCGATTGACAGCGTAGAATGAAGG
# DNA 2: CCTTCATTCTACGCTGTCAATCGCATCATCCTTCACTGTCCTGTTCTGACCTCGTTCGGC
# B5: NRC3_wobSeed133_DR5_C18T_o1 (dsDNA)
# DNA 1: B2 DNA 1 with C18T, C26G
# DNA 2: B2 DNA 2 with G35C, G43A
# B6: NRC3_random_hg19_91_o1 (dsDNA)
# DNA 1: GCGACTCAGACACTGCTGGCACCCGACACTGCTCTCGCGATTGACAGCGTAGAATGAAGG
# DNA 2: CCTTCATTCTACGCTGTCAATCGCGAGAGCAGTGTCGGGTGCCAGCAGTGTCTGAGTCGC
# B7: NRC3_random_hg19_266_o1 (dsDNA)
# DNA 1: GCAATGACAAGGAAGTGTGGAGGCAGAAAGTGCCAAGCGATTGACAGCGTAGAATGAAGG
# DNA 2: CCTTCATTCTACGCTGTCAATCGCTTGGCACTTTCTGCCTCCACACTTCCTTGTCATTGC
# B8: NRC3_random_hg19_156_o1 (dsDNA)
# DNA 1: GCGCCACCAGGCCTGCCTTACAAGAGCTCCTGAAGAGCGATTGACAGCGTAGAATGAAGG
# DNA 2: CCTTCATTCTACGCTGTCAATCGCTCTTCAGGAGCTCTTGTAAGGCAGGCCTGGTGGCGC
# B9: NRC3_wobSeed49_DR2_T8G_o1 (dsDNA)
# DNA 1: GCCAAACGAGGTCAAGAGGTCAAAGTCCGCTTCCCGGCGATTGACAGCGTAGAATGAAGG
# DNA 2: CCTTCATTCTACGCTGTCAATCGCCGGGAAGCGGACTTTGACCTCTTGACCTCGTTTGGC
# B10: NRC3_wobSeed73_DR3_A18G_o1 (dsDNA)
# DNA 1: GCCAAACTAGGTCACAGGGGTCAAAGTCCGTGCGTAGCGATTGACAGCGTAGAATGAAGG
# DNA 2: CCTTCATTCTACGCTGTCAATCGCTACGCACGGACTTTGACCCCTGTGACCTAGTTTGGC
# B11: NRC3_wobSeed94_DR3_G13C_o1 (dsDNA)
# DNA 1: GCCTACCAAGGTCAACAAGGTCGTTGATTACTATTCGCGATTGACAGCGTAGAATGAAGG
# DNA 2: CCTTCATTCTACGCTGTCAATCGCGAATAGTAATCAACGACCTTGTTGACCTTGGTAGGC
# B12: NRC3_wobSeed138_DR5_C13G_o1 (dsDNA)
# DNA 1: GCGATACAGGGTGAGCTAGAGGCCAGAGTATGGAAAGCGATTGACAGCGTAGAATGAAGG
# DNA 2: CCTTCATTCTACGCTGTCAATCGCTTTCCATACTCTGGCCTCTAGCTCACCCTGTATCGC
# B13: NRC3_random_hg19_119_o1 (dsDNA)
# DNA 1: GCCCTACCCTCCTCCCTGTCACTCGCCAGTCCCAGCGCGATTGACAGCGTAGAATGAAGG
# DNA 2: CCTTCATTCTACGCTGTCAATCGCGCTGGGACTGGCGAGTGACAGGGAGGAGGGTAGGGC
# B14: NRC3_random_hg19_372_o1 (dsDNA)
# DNA 1: GCGAGGTTGCAGTGAGCCAAGATTGCACCACTGCACGCGATTGACAGCGTAGAATGAAGG
# DNA 2: CCTTCATTCTACGCTGTCAATCGCGTGCAGTGGTGCAATCTTGGCTCACTGCAACCTCGC
# B15: NRC3_random_hg19_379_o1 (dsDNA)
# DNA 1: GCAGGCTGGCAGATGGTTCAACAGGTGAGTAAAGCAGCGATTGACAGCGTAGAATGAAGG
# DNA 2: CCTTCATTCTACGCTGTCAATCGCTGCTTTACTCACCTGTTGAACCATCTGCCAGCCTGC
# B16: NRC3_random_hg19_233_o1 (dsDNA)
# DNA 1: GCTACAAAGTACTGGGATCCTCCCAACAGCCTGCAAGCGATTGACAGCGTAGAATGAAGG
# DNA 2: CCTTCATTCTACGCTGTCAATCGCTTGCAGGCTGTTGGGAGGATCCCAGTACTTTGTAGC
# B17: NRC3_random_hg19_227_o1 (dsDNA)
# DNA 1: GCGAAGGAAGGAAGGAAGGAAGGAAGGAAGGAAGGCGCGATTGACAGCGTAGAATGAAGG
# DNA 2: CCTTCATTCTACGCTGTCAATCGCGCCTTCCTTCCTTCCTTCCTTCCTTCCTTCCTTCGC
# B18: NRC3_random_hg19_47_o1 (dsDNA)
# DNA 1: GCGCCTTCAGGAACATGCTATTCTGTCTATGGAGTCGCGATTGACAGCGTAGAATGAAGG
# DNA 2: CCTTCATTCTACGCTGTCAATCGCGACTCCATAGACAGAATAGCATGTTCCTGAAGGCGC
# B19: NRC3_random_hg19_80_o1 (dsDNA)
# DNA 1: GCCAATACAGCTTTGGCTTCTGCAGAATCTGAGGAAGCGATTGACAGCGTAGAATGAAGG
# DNA 2: CCTTCATTCTACGCTGTCAATCGCTTCCTCAGATTCTGCAGAAGCCAAAGCTGTATTGGC
# Assays:
# PPARg:RXRa = PPARg:RXRa (Homo sapiens, UniProt P37231;P19793 full;full); assay: no ligand; PBM; 180 nM : 90 nM RXRa; PBS pH 7.4, 2% milk, 0.02% Triton X-100, 1 mM DTT, BSA, 0.4 mg/ml salmon testes DNA; conditions: tags: His kept;His cleaved; copies: 1;1; label: surface-attached array probe
# THRa:RXRa = THRa:RXRa (Homo sapiens, UniProt P10827;P19793 full;full); assay: no ligand; PBM; 90 nM : 90 nM RXRa; PBS pH 7.4, 2% milk, 0.02% Triton X-100, 1 mM DTT, BSA, 0.4 mg/ml salmon testes DNA; conditions: tags: His kept;His cleaved; copies: 1;1; label: surface-attached array probe
# PXR:RXRa = PXR:RXRa (Homo sapiens, UniProt O75469;P19793 full;full); assay: no ligand; PBM; 270 nM : 90 nM RXRa; PBS pH 7.4, 2% milk, 0.02% Triton X-100, 1 mM DTT, BSA, 0.4 mg/ml salmon testes DNA; conditions: tags: His kept;His cleaved; copies: 1;1; label: surface-attached array probe
# How it was run: (§1)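 Binding z-scores were set against random background probes. The data came from custom Agilent 4×180K protein-binding microarrays carrying double-stranded probes with 34-nt variable regions, incubated 1 h with ligand-free nuclear receptor dimers. Partner-specific antibodies detected binding, and scanned fluorescence was regression-normalized.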
# FXR:RXRa = FXR:RXRa (Homo sapiens, UniProt Q96RI1;P19793 full;full); assay: as above; conditions: tags: His kept;His cleaved; copies: 1;1; label: surface-attached array probe
# How it was run: as §1
# PPARa:RXRa = PPARa:RXRa (Homo sapiens, UniProt Q07869;P19793 full;full); assay: as above; conditions: tags: GST kept;His cleaved; copies: 1;1; label: surface-attached array probe
# How it was run: as §1
# RARa:RXRa = RARa:RXRa (Homo sapiens, UniProt P10276;P19793 full;full); assay: as above; conditions: tags: His kept;His cleaved; copies: 1;1; label: surface-attached array probe
# How it was run: as §1
# RARb:RXRa = RARb:RXRa (Homo sapiens, UniProt P10826;P19793 full;full); assay: as above; conditions: tags: His kept;His cleaved; copies: 1;1; label: surface-attached array probe
# How it was run: as §1
# LXRb:RXRa = LXRb:RXRa (Homo sapiens, UniProt P55055;P19793 full;full); assay: as above; conditions: tags: His kept;His cleaved; copies: 1;1; label: surface-attached array probe
# How it was run: as §1
# VDR:RXRa = VDR:RXRa (Homo sapiens, UniProt P11473;P19793 full;full); assay: as above; conditions: tags: His kept;His cleaved; copies: 1;1; label: surface-attached array probe
# How it was run: as §1
# LXRa:RXRa = LXRa:RXRa (Homo sapiens, UniProt Q13133;P19793 full;full); assay: as above; conditions: tags: His kept;His cleaved; copies: 1;1; label: surface-attached array probe
# How it was run: as §1
# RARg:RXRa = RARg:RXRa (Homo sapiens, UniProt P13631;P19793 full;full); assay: as above; conditions: tags: His kept;His cleaved; copies: 1;1; label: surface-attached array probe
# How it was run: as §1
# RXRa = RXRa (Homo sapiens, UniProt P19793); assay: no ligand; PBM; 180 nM; PBS pH 7.4, 2% milk, 0.02% Triton X-100, 1 mM DTT, BSA, 0.4 mg/ml salmon testes DNA; conditions: tags: His cleaved; chain copies: 2; label: surface-attached array probe
# RXRa, sequence (P19793 whole entry): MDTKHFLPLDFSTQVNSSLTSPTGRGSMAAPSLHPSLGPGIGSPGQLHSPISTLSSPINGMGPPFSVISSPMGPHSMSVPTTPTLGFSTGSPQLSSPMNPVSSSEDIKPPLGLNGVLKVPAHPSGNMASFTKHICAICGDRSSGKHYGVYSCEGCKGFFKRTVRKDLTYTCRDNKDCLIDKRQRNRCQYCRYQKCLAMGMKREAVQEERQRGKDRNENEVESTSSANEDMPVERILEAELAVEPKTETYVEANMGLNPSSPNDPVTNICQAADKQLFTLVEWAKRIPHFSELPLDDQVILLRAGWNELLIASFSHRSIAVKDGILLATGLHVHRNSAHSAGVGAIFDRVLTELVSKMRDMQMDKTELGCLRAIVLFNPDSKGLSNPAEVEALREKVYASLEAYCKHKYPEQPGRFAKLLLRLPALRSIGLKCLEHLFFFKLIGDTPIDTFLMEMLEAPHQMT
# LXRa:RXRa, sequence (Q13133 whole entry, chain 1 of 2): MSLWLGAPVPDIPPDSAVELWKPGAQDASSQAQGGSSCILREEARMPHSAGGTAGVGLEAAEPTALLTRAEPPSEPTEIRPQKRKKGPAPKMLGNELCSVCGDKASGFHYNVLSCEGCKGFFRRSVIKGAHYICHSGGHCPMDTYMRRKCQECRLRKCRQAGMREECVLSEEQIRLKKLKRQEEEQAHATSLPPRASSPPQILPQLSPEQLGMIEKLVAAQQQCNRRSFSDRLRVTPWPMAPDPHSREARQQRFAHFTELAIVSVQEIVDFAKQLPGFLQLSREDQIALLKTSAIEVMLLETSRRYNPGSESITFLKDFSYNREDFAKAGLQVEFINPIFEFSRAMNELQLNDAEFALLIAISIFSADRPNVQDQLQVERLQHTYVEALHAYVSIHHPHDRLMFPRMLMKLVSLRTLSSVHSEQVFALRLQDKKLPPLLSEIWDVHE
# LXRa:RXRa, sequence (P19793 whole entry, chain 2 of 2): as the sequence (P19793 whole entry) above
# THRa:RXRa, sequence (P10827 other isoform, or with tags, fused parts or gaps, chain 1 of 2): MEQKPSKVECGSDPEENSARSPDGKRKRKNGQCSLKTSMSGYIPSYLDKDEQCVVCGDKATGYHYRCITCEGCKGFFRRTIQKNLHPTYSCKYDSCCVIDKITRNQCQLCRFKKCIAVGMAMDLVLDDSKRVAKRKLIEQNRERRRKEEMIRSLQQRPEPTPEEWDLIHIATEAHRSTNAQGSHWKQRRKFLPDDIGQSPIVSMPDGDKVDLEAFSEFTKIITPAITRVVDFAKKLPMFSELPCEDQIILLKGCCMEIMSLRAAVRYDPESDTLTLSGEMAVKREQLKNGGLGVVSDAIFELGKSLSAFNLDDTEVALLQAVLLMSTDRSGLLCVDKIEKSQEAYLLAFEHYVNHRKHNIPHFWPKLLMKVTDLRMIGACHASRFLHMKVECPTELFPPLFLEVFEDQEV
# THRa:RXRa, sequence (P19793 whole entry, chain 2 of 2): as the sequence (P19793 whole entry) above
# LXRb:RXRa, sequence (P55055 whole entry, chain 1 of 2): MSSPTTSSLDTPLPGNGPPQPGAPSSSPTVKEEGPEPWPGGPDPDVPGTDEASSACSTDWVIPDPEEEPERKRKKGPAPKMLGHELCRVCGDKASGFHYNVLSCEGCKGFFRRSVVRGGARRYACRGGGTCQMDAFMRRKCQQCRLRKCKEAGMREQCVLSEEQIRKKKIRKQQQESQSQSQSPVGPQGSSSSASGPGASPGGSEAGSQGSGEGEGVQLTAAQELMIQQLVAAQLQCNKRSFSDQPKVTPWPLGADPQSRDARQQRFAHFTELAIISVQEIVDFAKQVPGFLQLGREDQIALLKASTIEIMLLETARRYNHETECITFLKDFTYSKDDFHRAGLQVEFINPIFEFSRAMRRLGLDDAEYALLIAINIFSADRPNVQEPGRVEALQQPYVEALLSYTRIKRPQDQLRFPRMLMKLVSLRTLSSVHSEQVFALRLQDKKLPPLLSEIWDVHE
# LXRb:RXRa, sequence (P19793 whole entry, chain 2 of 2): as the sequence (P19793 whole entry) above
# FXR:RXRa, sequence (Q96RI1 whole entry, chain 1 of 2): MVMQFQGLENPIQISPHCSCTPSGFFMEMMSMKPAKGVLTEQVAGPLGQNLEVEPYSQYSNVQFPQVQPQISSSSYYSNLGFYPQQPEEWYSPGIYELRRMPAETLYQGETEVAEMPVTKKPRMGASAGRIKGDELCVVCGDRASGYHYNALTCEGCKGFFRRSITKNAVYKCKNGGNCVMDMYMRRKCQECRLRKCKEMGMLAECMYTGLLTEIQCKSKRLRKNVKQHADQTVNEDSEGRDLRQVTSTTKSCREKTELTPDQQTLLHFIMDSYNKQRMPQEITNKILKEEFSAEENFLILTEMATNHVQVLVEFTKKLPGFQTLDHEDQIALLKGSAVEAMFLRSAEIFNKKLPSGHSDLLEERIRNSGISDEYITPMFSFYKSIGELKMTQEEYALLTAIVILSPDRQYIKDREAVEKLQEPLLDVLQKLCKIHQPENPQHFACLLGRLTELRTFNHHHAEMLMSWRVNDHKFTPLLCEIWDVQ
# FXR:RXRa, sequence (P19793 whole entry, chain 2 of 2): as the sequence (P19793 whole entry) above
Binder,binding signal (PPARg:RXRa),binding signal (THRa:RXRa),binding signal (RARa:RXRa),other results
B1,-0.45 PBM z-score against 500 random probes,-0.6 PBM z-score against 500 random probes,,binding signal (PXR:RXRa): -0.8 PBM z-score against 500 random probes; binding signal (FXR:RXRa): -0.38 PBM z-score against 500 random probes; binding signal (PPARa:RXRa): -0.4 PBM z-score against 500 random probes
B2,,4.78 PBM z-score against 500 random probes,7.16 PBM z-score against 500 random probes,
B3,,4.89 PBM z-score against 500 random probes,4.46 PBM z-score against 500 random probes,
B4,,4.78 PBM z-score against 500 random probes,3.37 PBM z-score against 500 random probes,
B5,4 PBM z-score against 500 random probes,5.15 PBM z-score against 500 random probes,,binding signal (RARb:RXRa): 5.45 PBM z-score against 500 random probes
B6,,-0.34 PBM z-score against 500 random probes,-0.13 PBM z-score against 500 random probes,
B7,,-0.07 PBM z-score against 500 random probes,-0.53 PBM z-score against 500 random probes,binding signal (LXRb:RXRa): -0.28 PBM z-score against 500 random probes
B8,,-0.26 PBM z-score against 500 random probes,-0.57 PBM z-score against 500 random probes,
B9,,5.13 PBM z-score against 500 random probes,,binding signal (VDR:RXRa): 7.24 PBM z-score against 500 random probes; binding signal (LXRb:RXRa): 6.98 PBM z-score against 500 random probes; binding signal (PXR:RXRa): 7.24 PBM z-score against 500 random probes; binding signal (FXR:RXRa): 8.68 PBM z-score against 500 random probes; binding signal (RARb:RXRa): 6.35 PBM z-score against 500 random probes; binding signal (LXRa:RXRa): 7.08 PBM z-score against 500 random probes; binding signal (PPARa:RXRa): 7.33 PBM z-score against 500 random probes; binding signal (RARg:RXRa): 9.13 PBM z-score against 500 random probes; binding signal (RXRa): 9.6 PBM z-score against 500 random probes
B10,10.8 PBM z-score against 500 random probes,5.07 PBM z-score against 500 random probes,,binding signal (PPARa:RXRa): 7.23 PBM z-score against 500 random probes; binding signal (RARg:RXRa): 7.8 PBM z-score against 500 random probes
B11,,4.82 PBM z-score against 500 random probes,,binding signal (VDR:RXRa): 8.68 PBM z-score against 500 random probes; binding signal (LXRb:RXRa): 5.94 PBM z-score against 500 random probes; binding signal (PXR:RXRa): 6.83 PBM z-score against 500 random probes; binding signal (FXR:RXRa): 8.19 PBM z-score against 500 random probes; binding signal (RARb:RXRa): 5.51 PBM z-score against 500 random probes; binding signal (LXRa:RXRa): 6.7 PBM z-score against 500 random probes
B12,0.43 PBM z-score against 500 random probes,0.33 PBM z-score against 500 random probes,,
B13,-0.75 PBM z-score against 500 random probes,-0.04 PBM z-score against 500 random probes,,binding signal (VDR:RXRa): 0.49 PBM z-score against 500 random probes
B14,-0.12 PBM z-score against 500 random probes,-0.05 PBM z-score against 500 random probes,,
B15,-0.07 PBM z-score against 500 random probes,-0.17 PBM z-score against 500 random probes,,binding signal (LXRa:RXRa): -0.53 PBM z-score against 500 random probes
B16,0.13 PBM z-score against 500 random probes,-0.3 PBM z-score against 500 random probes,,binding signal (PXR:RXRa): -0.22 PBM z-score against 500 random probes
B17,-0.31 PBM z-score against 500 random probes,-0.49 PBM z-score against 500 random probes,,binding signal (PXR:RXRa): -0.88 PBM z-score against 500 random probes; binding signal (RXRa): -1.01 PBM z-score against 500 random probes
B18,0.27 PBM z-score against 500 random probes,-0.54 PBM z-score against 500 random probes,,
B19,-0.24 PBM z-score against 500 random probes,-1.02 PBM z-score against 500 random probes,,binding signal (RXRa): -0.53 PBM z-score against 500 random probes
